# Biological target: DnaD^7A, purified (B. subtilis) (UniProt P39787)
# Test: SEC
substance,measurement,value
"DnaD^7A, purified (from UniProt P39787 1-232) (natural protein)",stoichiometry N,4
